Measured values as given in the supplement of paper PMC9112550, “Optimization of the antimicrobial peptide Bac7 by deep mutational scanning” (BMC Biology, 2022).

Tested on: Escherichia coli TOP10
Experiment: shrunken log2 fold change of peptide-encoding DNA abundance (4.5 h post-induction vs induction); higher = less antimicrobial activity (less host growth inhibition)
Settings: time post-induction: 4.5 h; library: site-saturation at positions 5, 18, 19, 20
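Also: peptides expressed intracellularly from a pBAD plasmid library in pooled LB shake-flask culture, induced with 0.3% L-arabinose, DNA abundance read by NGS, three biological replicates, DESeq2 with apeglm shrinkage.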

Sequence	shrunken log2 fold change
RRIRARPPRLPRPRPRPTPWPRP	0.563
RRIRHRPPRLPRPRPRPTKTPRP	-0.194
RRIRDRPPRLPRPRPRPNREPRP	-0.00168
RRIRRRPPRLPRPRPRPSFCPRP	-0.00369
RRIRERPPRLPRPRPRPNRNPRP	-1.09
RRIRLRPPRLPRPRPRPGGQPRP	0.319
RRIRVRPPRLPRPRPRPILSPRP	-0.134
RRIRKRPPRLPRPRPRPHEYPRP	-0.091
RRIRCRPPRLPRPRPRPKGRPRP	-0.00803
RRIRTRPPRLPRPRPRPGGFPRP	0.413
RRIRIRPPRLPRPRPRPKDQPRP	-0.196
RRIRRRPPRLPRPRPRPNIVPRP	-0.171
RRIRVRPPRLPRPRPRPRLWPRP	0.45
RRIRIRPPRLPRPRPRPDWTPRP	0.0313
RRIRRRPPRLPRPRPRPFSDPRP	-0.311
RRIRWRPPRLPRPRPRPACMPRP	0.164
RRIRLRPPRLPRPRPRPDKCPRP	-0.0114
RRIRPRPPRLPRPRPRPQETPRP	0.134
RRIRCRPPRLPRPRPRPSFHPRP	-0.841
RRIRWRPPRLPRPRPRPSQVPRP	-0.0348
RRIRPRPPRLPRPRPRPFLFPRP	-0.204
RRIRRRPPRLPRPRPRPHWIPRP	0.0716
RRIRERPPRLPRPRPRPRRIPRP	-0.00822
RRIRPRPPRLPRPRPRPYRCPRP	-0.173
RRIRSRPPRLPRPRPRPFSVPRP	-0.416

Sequence	shrunken log2 fold change
RRIRCRPPRLPRPRPRPRNKPRP	-0.102
RRIRFRPPRLPRPRPRPTGRPRP	0.131
RRIRIRPPRLPRPRPRPEAAPRP	0.538
RRIRIRPPRLPRPRPRPYQIPRP	-0.273
RRIRTRPPRLPRPRPRPYTWPRP	-0.465
RRIRHRPPRLPRPRPRPIYLPRP	-0.211
RRIRPRPPRLPRPRPRPGPNPRP	0.51
RRIRTRPPRLPRPRPRPLALPRP	-0.0853
RRIRERPPRLPRPRPRPYMWPRP	-0.452
RRIRMRPPRLPRPRPRPYTQPRP	-0.149
RRIRNRPPRLPRPRPRPYTQPRP	-0.798
RRIRSRPPRLPRPRPRPNNVPRP	-0.592
RRIRDRPPRLPRPRPRPLLRPRP	0.0308
RRIRNRPPRLPRPRPRPIPEPRP	-0.147
RRIRIRPPRLPRPRPRPYSHPRP	-0.941
RRIRTRPPRLPRPRPRPRCNPRP	-0.36
RRIRSRPPRLPRPRPRPDCVPRP	-0.0759
RRIRERPPRLPRPRPRPTSHPRP	-0.239
RRIRSRPPRLPRPRPRPPRMPRP	0.274
RRIRARPPRLPRPRPRPTIWPRP	0.206
RRIRIRPPRLPRPRPRPQKWPRP	-0.0915
RRIRERPPRLPRPRPRPMQEPRP	0.216
RRIRNRPPRLPRPRPRPQGPPRP	0.0355
RRIRMRPPRLPRPRPRPNVMPRP	-0.108
RRIRNRPPRLPRPRPRPMNWPRP	0.127

Sequence	shrunken log2 fold change
RRIRYRPPRLPRPRPRPELVPRP	0.25
RRIRNRPPRLPRPRPRPCIMPRP	-0.135
RRIRHRPPRLPRPRPRPTNWPRP	0.0467
RRIRYRPPRLPRPRPRPWQVPRP	-0.09
RRIRHRPPRLPRPRPRPYYTPRP	-0.0493
RRIRPRPPRLPRPRPRPDFVPRP	-0.107
RRIRIRPPRLPRPRPRPQTTPRP	-0.38
RRIRFRPPRLPRPRPRPFLMPRP	-0.263
RRIRARPPRLPRPRPRPPGCPRP	0.746
RRIRARPPRLPRPRPRPTRGPRP	0.301
RRIRFRPPRLPRPRPRPPNQPRP	0.23
RRIRLRPPRLPRPRPRPTEAPRP	-0.00104
RRIRKRPPRLPRPRPRPYMKPRP	-0.134
RRIRCRPPRLPRPRPRPWRCPRP	0.486
RRIRLRPPRLPRPRPRPKLKPRP	0.295
RRIRVRPPRLPRPRPRPIRKPRP	-0.165
RRIRCRPPRLPRPRPRPHRGPRP	0.0133
RRIRDRPPRLPRPRPRPHVNPRP	0.000411
RRIRHRPPRLPRPRPRPWWMPRP	0.0619
RRIRDRPPRLPRPRPRPENTPRP	0.17
RRIRWRPPRLPRPRPRPAPTPRP	0.695
RRIRRRPPRLPRPRPRPNLAPRP	0.176
RRIRCRPPRLPRPRPRPIACPRP	-0.285
RRIRVRPPRLPRPRPRPPAAPRP	0.397
RRIRPRPPRLPRPRPRPMTKPRP	0.0497

Sequence	shrunken log2 fold change
RRIRERPPRLPRPRPRPKWWPRP	0.397
RRIRERPPRLPRPRPRPYRCPRP	-0.0874
RRIRRRPPRLPRPRPRPGTYPRP	-0.0906
RRIRIRPPRLPRPRPRPHVTPRP	-0.132
RRIRKRPPRLPRPRPRPPVWPRP	0.448
RRIRKRPPRLPRPRPRPISKPRP	-0.357
RRIRVRPPRLPRPRPRPMSDPRP	0.032
RRIRTRPPRLPRPRPRPILGPRP	0.0438
RRIRARPPRLPRPRPRPSMQPRP	0.352
RRIRYRPPRLPRPRPRPPIYPRP	-0.676
RRIRSRPPRLPRPRPRPSNYPRP	-0.869
RRIRDRPPRLPRPRPRPKVGPRP	-0.017
RRIRTRPPRLPRPRPRPITTPRP	-0.438
RRIRYRPPRLPRPRPRPEIKPRP	-0.114
RRIRYRPPRLPRPRPRPFQFPRP	0.015
RRIRRRPPRLPRPRPRPINDPRP	-0.219
RRIRARPPRLPRPRPRPKSHPRP	-0.184
RRIRYRPPRLPRPRPRPVIKPRP	-0.585
RRIRDRPPRLPRPRPRPQQWPRP	0.0413
RRIRIRPPRLPRPRPRPFCQPRP	-0.412
RRIRVRPPRLPRPRPRPPGWPRP	0.718
RRIRFRPPRLPRPRPRPHNEPRP	-0.626
RRIRPRPPRLPRPRPRPSHRPRP	0.0628
RRIRCRPPRLPRPRPRPFEWPRP	-0.0143
RRIRYRPPRLPRPRPRPAIMPRP	-0.196

Sequence	shrunken log2 fold change
RRIRLRPPRLPRPRPRPMRYPRP	0.0322
RRIRERPPRLPRPRPRPMFTPRP	-0.278
RRIRLRPPRLPRPRPRPQAWPRP	0.126
RRIRDRPPRLPRPRPRPFVEPRP	-0.0362
RRIRTRPPRLPRPRPRPYHNPRP	-0.941
RRIRGRPPRLPRPRPRPMTGPRP	0.427
RRIRIRPPRLPRPRPRPWANPRP	-0.0688
RRIRWRPPRLPRPRPRPCMCPRP	-0.0735
RRIRTRPPRLPRPRPRPEKTPRP	0.051
RRIRCRPPRLPRPRPRPKCKPRP	0.0809
RRIRYRPPRLPRPRPRPTQKPRP	-0.0476
RRIRARPPRLPRPRPRPERMPRP	0.618
RRIRNRPPRLPRPRPRPSEFPRP	-0.109
RRIRTRPPRLPRPRPRPKNRPRP	-0.0821
RRIRSRPPRLPRPRPRPYHSPRP	-0.181
RRIRVRPPRLPRPRPRPSYFPRP	-0.131
RRIRTRPPRLPRPRPRPFAVPRP	-0.0779
RRIRNRPPRLPRPRPRPFQFPRP	-0.0984
RRIRCRPPRLPRPRPRPPQDPRP	1.08
RRIRMRPPRLPRPRPRPQIRPRP	-0.0442
RRIRERPPRLPRPRPRPFIMPRP	-0.0895
RRIRRRPPRLPRPRPRPAIRPRP	-0.0892
RRIRRRPPRLPRPRPRPLWTPRP	0.129
RRIRGRPPRLPRPRPRPNVYPRP	0.205
RRIRIRPPRLPRPRPRPHWWPRP	0.133

Sequence	shrunken log2 fold change
RRIRIRPPRLPRPRPRPCFGPRP	-0.415
RRIRSRPPRLPRPRPRPSSFPRP	-0.356
RRIRARPPRLPRPRPRPMLCPRP	0.637
RRIRFRPPRLPRPRPRPNKSPRP	-0.67
RRIRGRPPRLPRPRPRPCTMPRP	-0.063
RRIRARPPRLPRPRPRPYYNPRP	-0.97
RRIRFRPPRLPRPRPRPETDPRP	0.114
RRIRFRPPRLPRPRPRPNWCPRP	-0.107
RRIRCRPPRLPRPRPRPPCIPRP	0.0428
RRIRSRPPRLPRPRPRPAVNPRP	0.0811
RRIRLRPPRLPRPRPRPLYTPRP	-0.461
RRIRCRPPRLPRPRPRPHWIPRP	-0.761
RRIRNRPPRLPRPRPRPKKPPRP	-0.0506
RRIRTRPPRLPRPRPRPLVVPRP	0.193
RRIRVRPPRLPRPRPRPYTLPRP	-0.666
RRIRIRPPRLPRPRPRPHKKPRP	-0.0912
RRIRYRPPRLPRPRPRPSNCPRP	-0.107
RRIRARPPRLPRPRPRPYSKPRP	-0.91
RRIRIRPPRLPRPRPRPKYEPRP	-0.83
RRIRHRPPRLPRPRPRPNQGPRP	-0.479
RRIRPRPPRLPRPRPRPAHFPRP	0.111
RRIRQRPPRLPRPRPRPNVIPRP	-0.0189
RRIRFRPPRLPRPRPRPTAKPRP	0.444
RRIRHRPPRLPRPRPRPETEPRP	0.105
RRIRKRPPRLPRPRPRPREKPRP	-0.107
